Experimental findings from the DeepSol protein solubility set are described below.

The series is described as follows: soluble on expression in E. coli; label from the status in PepcDB or PDB records.
Consider “MQPQAFYRVVAEDFTAVDGIIRRQLTSRVPLVEKIGDYIISAGGKRLRPLLVLLAGKTLGYKGDDLCLLAATIEFLHTSTLLHDDVVDASGLRRGRSTANALWGNAPSVLVGDFLYARSFEMMVELGSMPVMRIISQATRVIAEGEVLQLSKVRDASTTEETYMEVIRGKTAMLFEASTHSAAALCQAGEEQSEALRRFGDYLGIAFQLVDDLLDYRGDAATLGKNVGDDLAEGKPTLPLIVTMRDGTEEQAALVRKAIQQGGSQDLESVCAAVEAAGALDYTANLARDYAARAIACLDTLPDNEYRSALVELSEFAVARTH”, for which the “soluble on expression in E. coli” value is reported as “not soluble”.

As for “MADRKSDEGEDEYQHKEQMVTNRTSSFQPKSTEDSISKLAKMRAADRREEFMEERASFSAVKRGYQAGDDEEDDFTAEEEPPAKKPLTVAERLMAAMGHKAGEGLGKHGQGISEPIASSTQRGRTGLGHNAGKATARDFNEVWDETTEEKTVVERVEWMTDIEEEKRAEICEQLKDDKWMVIGKEKRTIDDETKFCSQQSITEMIEAKNVFDLMSDKDLREARTRANPYETIGSAFFQNRAAMKTANMDKIYDWILSRENTENDRFLLKNPLQESQTAENVDRSEDLFYFADVCAGPGGFSEYMLWRKGFYNAKGFGFTLAGKDDFKLFKFTASSQYFFETFYGTKDNGDVMDPVNIDSLEAHISRGTSGLGVHLMMADGGFSVEGQENIQEILSKRLYLCQLLVSLCIVREGGNFFCKLFDIFTPFSVGLIYLMRVCYQSVSLHKPHTSRPANSERYITCKGLRKEFANVVKEYLKRVNRKLDELKNKKSHDDVTDLMPLDVIEADQIFMDEIIRHNEFLANRQTLYLRKYQSFAKNQGQFDKDQGNLRDECLKYWQVPNKQRPRGGDRGNRHDNMQRLNPLQVYGKYCKKVCGESEIGNTFPDFSLNCLDAPLPNIPYEEYRFVPLASSGSPNLLIAAGDSAFIFRSGRFESISADHIRIPENTILLVDWAEEVVRGDGNRIKISSEPQVVRIIDAAVLFGDDVSNLPYEERMKAAEKFVAALKQTNRKVKKGWGHRAEMIKPHLKICAKTYSLAELDEFRSNLEKLEHNRELAVLFTEGEFTFRCQALRFTRIIKQEWRMGWSKSQQKPYAHSQEHQNAGSIPVELWAEKSIYSSFWDSVICLNKDKKKLMEAMEHTKGKCPIPSSIWSWKACILNLFPFFSVRTPYGPEKILNYPEPFEGKPTIAALKAQIENTDLIVKRVRN”, the “soluble on expression in E. coli” value is given as “not soluble”.

“TMEPERLFNLIVKTTVDTLRAQIGYIILYSPREKNLQVTTLLGHTIPEGSTTTLPMKQSSVSTWVIENRRPLLITTMDEWPQFDRYSSLGYERRTLICAPLQIKDEIIGTITVVNKDDNSTYTIQELELLSTIAAQASIAIKNAQLYDEQQATYLHTIQALVSAIEAS”: the “soluble on expression in E. coli” value is “not soluble”.

For “MKPRVEILMSTYNGEKFLAEQLDSILAQTHQYFVLTVRDDGSKDGTPDILSRYAATDERITYCVQENRGVVGSFYWLLKNSSPLSNYVAFSDQDDVWLPNKLERALDVLSRYDETLPLLYCSRVEYVSAGLGHLDDSPMMVRPVCLNNALIQNVATGCTVVMNKAARDLLLEREWPPQVLMHDWWSYIVVSAFGKVVYDDFVSIKYRQHGGNVIGGTVSFVSDYRSRIINFLSRRRKGVFGCYDQAYSFWLGYKDELKGESRGIVSQFIESKRSFLSRLNYLTSSQRVYRHRFIDDVLVRLLILSNKYLEHHHHHH”, the “soluble on expression in E. coli” value is listed as “not soluble”.

For the sequence “MAHHHHHHMISYSGVLYTSDLMAQLMEMVKYSTHASSRDSDAQRLLRYAVRGSSAAQDDLYRSLWLKVEMVADSRVLGRYIGAREPWSPIRVCFDERGLFKSYPPLVHASAKKTSAIEADATSGSGSTTMEEEQRQQSERQGMSTEITSHTSEGGEEMVEGVRGAVVAEASEASGVKDVALQEASHGEQRTVEALDLRWDDIHRLIERTRALTSPPTERHPQQEKMEIFTGIAVYLRTIATGRRYCSGEEEAGGEYPAESRERALFAVGYELDVWARLFELVQEVRHDMEKFITDNAAHHVEPEFECWEALLITLRCILDFCVVRTQEKGKEERAAVEELFEKTMKLRNELVEESRTRFGGRMRILWLQEA”, the “soluble on expression in E. coli” value was “not soluble”.

In the case of “MEERNEQVVEEVKEAQVEEAVTPENSEETVEEKSEAALLQEKVDELQAKLTETEGRTLRLQADFENYKRRVQMDKQAAEKYRAQSLVSDILPALDNFERAMQVEATDEQTKSLLQGMEMVHRQLLEALNKEGVEVIEAVGKQFDPNEHQAIMQVEDSEFESNAVVEEFQKGYKLKDRVIRPSMVKVNQ”, the “soluble on expression in E. coli” value is reported as “not soluble”.

Consider “MKKAKLGKSDLQVFPIGLGTNAVGGHNLYPNLNEETGKELVREAIRNGVTMLDTAYIYGIGRSEELIGEVLREFNREDVVIATKAAHRKQGNDFVFDNSPDFLKKSVDESLKRLNTDYIDLFYIHFPDEHTPKDEAVNALNEMKKAGKIRSIGVSNFSLEQLKEANKDGLVDVLQGEYNLLNREAEKTFFPYTKEHNISFIPYFPLVSGLLAGKYTEDTTFPEGDLRNEQEHFKGERFKENIRKVNKLAPIAEKHNVDIPHIVLAWYLARPEIDILIPGAKRADQLIDNIKTADVTLSQEDISFIDKLFAPG”, for which the “soluble on expression in E. coli” value is “soluble”.

With “LNKELQHERLAYITDSELIIFADFLPTEFVDEYLIDQSEESVAHIQQALSYEDNKVGRYAEPHFLVANPKNSVGGIKTELLKRGQSPVRLIIVRDVGGVIGTIEPQILLLHENHTKLTDLTVVTPILEDIQTIQSVSKQVSIDGGAHWFPIMAGGKIMGVLSMATIAITLRELSLQAVVAENVRSEEDLFTPLTVATRLRAL”, the “soluble on expression in E. coli” value is recorded as “not soluble”.

With “KLEYRISYDDEKEIKAIVFIIGGYGANANIYFLDSYRNYIAKNFDVVAVHVFYHCFCQRRSDVEKYSAYKYFQEEDIENIKNLLNQFHFSYGEINNDNALFLANSLVKHVENLKMQNKLDHNFKLNFTSTFIPPNGDYQNYGIMAAIDHINALKDLVKRFPKFADLPK”, the “soluble on expression in E. coli” value is “not soluble”.

As for “MERVASVLSALKPTLEKHQLGSWKPAEVDRLCAMLREYGKQERRDKCGTSCLDGAATALASLPSSSSVPPSLPSGGDDVEDENDADEEAFAGVVSEVDRCLSLVRDFLKRRMPFGAVVEPTLPAGTAERQAPQSSSADIISCKRARSLSGEPSSSAPTSNSVHSGAAVVEAPVYAVDAFLYAEGDIEKLVEAKKLAREYCCRCGSTDLGLVEFITHSFSQDQLVYLSCFLLPHLLDVVVASHEASRPLSIVDVGSRLGIVLWACAFALQRGLLAPAQAATTDAAADDAAPEVNLVGIELDATFVKISQDVARRFFAQRRRHAPKLVSVPQPAAANGVDAKLPDVSSSIQLLQSDCFEGAAASALSESSLVVMHNVFEYFCTTAVEHARCWLKLRRLVHRSGQFLVCSPALEVTLGTFTDEVWLQAWQLENGNDARGASTPLAWLASYVEPFDTADVASDFLTMRTLSCEGCDAGSDGDKHHEDHHGRSRDHHHHSSEDDEGDGEEASEMAEQIQRIYVYCVK”, the “soluble on expression in E. coli” value is “not soluble”.

Regarding “MAHHHHHHMAKHSTFKNLVKLHGDMKKEELLVLFFHSCILDNNFIYKLNDEQKYEKSESHEKIKISNGYIKHMTDVGSGKFFLSRILIDPEWRSNSSSYNFLYQSVDTNDTYNLNLVKIENSLVVQIINTAQPSVVHSVTIDVGEYVNECTAEEGKTDNIEDRVMMEKLEGVFQTHILSHMKKGSSNNILGDNSSSKGKGPKGLIIESNANEHFRNVFQTNPDPYLLPNFNANHFDDKNPNIGRSLIPDLRNNVPILKPDGLLVGPDNKFFNPKNLRYDPIGPFGNEPNADNKPFEFQDNFPF”, the “soluble on expression in E. coli” value is given as “not soluble”.

For “MGSDKIHHHHHHMSRFFRHYQAFHAIIETGTVTGAAERLGVSQPAISNLLAQLERRTRLKLFERNRGRLLPTPEAMVLFDEIDTVIRGLGQVSQAVVDLQNQKAGQLQVATNHAMAFGFMPEQIARFAADKPNLTVAFQSQYSAKIQDWVMAGLFEIGICEQPVRTDGLDWVPFFFEIQCAVPADSPLARHEELTPILLDDVPFIVMGADHMVTRRAREAFHREGANLRIRCQTDLFRNALNLVKQGLGVTLVDPFTLSSDDRSGYVLRRFAPRILLDVIIVTARGRPISAIGAQFLEQVSASMTTLATAAPDPAEP”, the “soluble on expression in E. coli” value was “not soluble”.

Take “MGHHHHHHSHMEEERRDDYKFLRIQDAFKALHLHVNLIGVIVELGFSNGSDCSCTLKIVDPWYSGSGLPVKFVARTIRDLPRVESIGDIILLSRVKIVLINRKITALCNETTSSSFALFNGKHSVDSIPYQSSPKFLMREQDKNFLSNLREWMITYKFEDGS”: the “soluble on expression in E. coli” value is “not soluble”.
